From patent US20160045158A1, “DEVICES, SYSTEMS, AND METHODS FOR TRANSDERMAL DELIVERY OF COMPOUNDS” (PROMETHEON PHARMA, LLC, priority 2013, published 2016)

How the values were obtained:
[1] = tested on: EpidermFT™ (MatTek) full thickness human skin equivalent tissues; test: Transdermal flux/accumulation across EpidermFT full thickness human skin equivalents (Iso-Insulin ELISA of receptor fluid); type: in vitro ADME
Procedure: Proof-of-concept ex vivo studies of transdermal delivery of long-acting insulin analogues by a poloxamer 188, propylene glycol and lauracopram formulation designated TopiconDM™ were performed using metabolically active full thickness human skin equivalent (HSE) inserts from EpidermFT™ (MatTek) grown on a semi-permeable membrane that allows test compounds to pass through the tissue and accumulate in the receptor fluid on the other side. It is important to note that the term TopiconDM™ is a trademark, is not descriptive of the subject formulation, and is merely an indication of the source of the subject formulation. Thus, the use of the term TopiconDM™ herein shall not be used to affect any trademark rights associated with the term TopiconDM™.
All transdermal delivery in this model occurs exclusively by permeation across the barrier-enhanced stratum corneum. Drug permeation studies were modeled according to classic Franz cell in-sink diffusion studies. Studies were carried out for 5-7 continuous days to determine whether a 7-day TopiconDM™ basal insulin patch containing an insulin or insulin analogue is feasible. A semi-high throughput protocol was developed for the use of EpidermFT™, a barrier enhanced, mitotically and metabolically active human skin tissue model.
To determine the feasibility of creating a 7-day (weekly) TopiconDM™ insulin glargine patch, a protocol was developed in which the tissue inserts were incubated in tissue culture maintenance medium (with serum). All insulin and insulin analogues were commercially purchased and lyophilized. TopiconDM™ insulin glargine formulations were specifically adjusted to pH 4.0; all other insulin formulations were adjusted to pH ˜7 were prepared to deliver doses ranging from 0.01-50 IU in a volume of 50 microliters at 32° C. applied to the apical surface of individual 0.6 cm^2 EpidermFT™ (MatTek) full thickness human skin equivalent tissues in 6-well plates containing 2.0 ml of receptor fluid incubated at 32° C. throughout the duration of each study. It was empirically determined that 50 microliters of the formulations was sufficient to cover the entire surface of the tissue inserts when applied directly to the center. 200 microliter samples from the receptor chamber on the basal side were removed at 0.5, 1, 2, 3, 6, 8, 12, 20, 24 hours and then every 24 hours for up to 7-days; 200 microliters of fresh maintenance medium with serum was added back to receptor chamber after each sampling (closed system model). Plasma insulin and insulin analogue accumulation in mIU/cm^2 (reflecting transdermal delivery across 0.6 cm^2 tissue surface area) was quantified using the Iso-Insulin ELISA Kit (Mercodia AB, Uppsala, Sweden).
The MatTek EpidermFT™ (EFT-300) tissues are also documented to have more of the structural features of the basement membrane. […] The saturating dose for insulin glargine is 10 U/0.6 cm^2 since the flux is not increased at a dose of 20 U/0.6 cm^2. Indeed, the accumulation curves for these doses are superimposable. Results reflect ELISA measurements (Mercodia Iso-Insulin) performed in triplicate for samples at each time point.

[2] = type: in vitro ADME, human
Procedure: In human studies, the total plasma free insulin concentration reached a plateau concentration of 18.9 µIU/mL based on a well cited published study of glargine pharmacokinetics after a single subcutaneous injection in type 1 diabetic subjects over 3-24 hours (Lepore, M et al 2000, Diabetes 49:2142-2148). However, the actual steady-state plateau glargine concentration was 6.4 µIU/mL because the patients were titrated to an insulin concentration of ˜12.5 µIU/mL with a continuous lispro short-acting insulin infusion before glargine was administered. After scaling for average adult blood volume of 5 L and adjusting for known cross-reactivity of our ELISA assay with various insulin analogues (44% for glargine, 22% for detemir), a table comparing patch size and insulin dose required to achieve targets of 6.4 µIU/mL within 24 hours after administration of TopiconDM™ containing insulin glargine could be determined. […] However, it is apparent that the 10 IU/0.6 cm^2 dose of insulin glargine can achieve and maintain a target steady-state total insulin concentration of 6.4 µIU/mL with a 0.6×0.6 cm patch throughout the 5-days of the study.
The concentration of insulin glargine achieved is based on accumulation in 2.5 ml of receptor volume in the tissue model extrapolated to average adult blood volume of 5 L. […]

[3] = Plasma glargine PK in STZ-induced male CD hairless rats (type 1 DM); type: in vivo, rat; details: single 2 U subcutaneous injection
Procedure: (§1) Referring to FIG. 14, shown is a 24 Hour PK/PD study showing rapid appearance in and elimination of SC Injected Glargine from the Systemic Circulation. The red plot is the glargine concentration from pooled plasma (average±std dev of ELISA measurements). Blue plot is blood glucose (BG) concentration (average±std dev) measured by ACCU-CHEK® Aviva glucose meter. Average BG (blue line) and range (white horizontal bar) in normal CD hairless rats was determined to be ˜130 mg/dL (100-160 mg/dL) in a cohort of adult rats weighing ˜250 gm.
ELISA to quantitate the plasma glargine level was performed in triplicate on pooled blood for each time point (alternating N=2 and N=3) using the Mercodia Iso-Insulin kit. Blood samples were pooled to allow for adequate sampling of many time points over the course of 24-hour study and to reduce variability. This method has been validated for performing PK studies.
(§2) Green plot is plasma glargine concentration (average±std dev). Brown plot is blood glucose concentration (average±std dev) measured by ACCU-CHEK® Aviva glucose meter. Measurements were obtained from all individual animals (N=4) at each time point (i.e. blood samples were not pooled). ELISA to quantitate the plasma glargine level was performed in triplicate on blood samples from individual animals (N=4) at each time point using the Mercodia Iso-Insulin kit.

[4] = tested on: STZ-Induced Male CD Hairless Rat: Type 1 DM; test: Blood glucose PD in STZ-induced male CD hairless rats (type 1 DM); type: in vivo
Procedure: as §1
PD (Y-axis scale on right): The blood glucose (BG) and plasma glargine plots are essentially minor images of each other, consistent with an expected dramatic BG lowering effect after insulin glargine injection. The baseline mean BG of ˜375 mg/dL rapidly reached a nadir of ˜70-80 mg/dL that was persistent between 0.5-5 hours, representing asymptomatic hypoglycemia.
as §2
Referring to FIG. 16, A PD study of insulin glargine BG lowering effect comparing 1 U subcutaneous (sc) injection (gold standard) versus 5 U/1 cm^2 patch was performed. Referring to FIG. 18, the blue plot is BG concentration (average±std dev) of rats that received a single 1 U subcutaneous injection. Brown plot is BG concentration of rats that received a 5 U/1 cm^2 patch. BG measurements by ACCU-CHEK® Aviva glucose meter were obtained from all individual animals (N=4) at each time point (i.e. blood samples were not pooled). ELISA to quantitate the plasma glargine level was performed in triplicate on blood samples from individual animals (N=4) at each time point using the Mercodia Iso-Insulin kit.

[5] = cited from earlier work
[6] = tested on: keratinized apical layer of the mouse cervix; details: in vivo
From the text: The P188/PG (80/20 ratio) co-polymer was then used to deliver FITC-tagged 38 amino acid cytotoxic decoy peptides.
To achieve topical delivery of decoy peptides into the entire mouse cervical T-zone, a solid FITC-tagged decoy peptide-containing co-polymer/enhancer rod was manually delivered into the endocervical canal and into one of the 2 cervical/uterine horns of a 7 month old K14E6 homozygous female transgenic mouse expressing the HPV type 16 E6 oncoprotein that synergizes with 1713-estradiol to induce low-grade dysplasia (CIN I, II) in situ that closely mimics the step-wise development of human cervical cancer; the “untreated” cervical served as an internal control.
After animals were anesthetized, a “speculum” comprised of a standard P-100 pipette tip with the tip cut off at the midpoint along its length was inserted into the vagina to expose the opening of the cervical canal. A three-fourth inch long, 24-guage catheter (Teruma Surflush; inner diameter 0.47 mm) with the trocar removed was fit onto a compatible P-10 micropipette. The catheter was loaded with the peptide-containing, liquid co-polymer/enhancer formulation to a length that approximates the entire cervical T-zone and extends across the squamo-columnar junction into the uterine horn. […]
1 mM FITC-conjugated *Br1 was used for direct visualization of peptide delivery by fluorescence microscopy. […]

insulin glargine
flux dose-response [1]: clear dose-response
saturating dose (flux not increased at 20 U/0.6 cm^2) [1]: 10 U/0.6 cm^2
size of patch required to achieve and maintain target levels [2]: under 1 cm×1 cm
return of plasma concentration to baseline level [3]: ≤ 5 h
t1/2 [3]: ~2 h
Cmax (plasma glargine) ([3]; adult rats ~250 gm): ~120 microU/mL
hypoglycemia (BG<100 mg/dL) ([4]; 1 U sc injection): rapidly became hypoglycemic
hypoglycemia (BG<100 mg/dL) ([4]; 2 U sc injection): rapidly became hypoglycemic
period during which blood glucose nadir persisted ([4]; 2 U subcutaneous injection): 0.5 to 5 h
blood glucose nadir ([4]; 2 U subcutaneous injection, baseline mean BG ~375 mg/dL): 70 to 80 mg/dL
actual steady-state plateau glargine concentration ([5]; after subtracting ~12.5 µIU/mL lispro infusion background): 6.4 µIU/mL
total plasma free insulin plateau concentration ([5]; single subcutaneous injection of glargine, type 1 diabetic subjects, over 3-24 hours (Lepore 2000)): 18.9 µIU/mL
mean plateau plasma concentration ([5]; single subcutaneous injection, patients with type 1 diabetes): ~6.4 micoU/mL

insulin detemir
Cmax for adults ([5]; single 0.5 U/kg dose, patients with type 1 DM): 208 microU/mL

insulin lispro
flux dose-response [1]: clear dose-response

ERQIKIWFQNRRMKWKKATGCLLDDGLEGLFEDID [*Br1]
penetration across keratinized apical layer of mouse cervix / cervical squamous epithelium [6]: Successful transdermal delivery

insulin glulisine
flux dose-response [1]: clear dose-response

insulin aspart
flux dose-response [1]: clear dose-response

Human growth hormone (hGH): human growth hormone (22 kDa)
flux dose-response [1]: clear dose-response
